Measurements: the RNAGym collection of RNA variant scans (doi:10.7554/elife.90254)

B1: LINE1-full (parent)
chain: UACGUAGGUGGUUUUCCCCUGAUAGUGCUAAGGGGGCCUGGAAGUUUGGACUGGGCAGAGCUCAACACAGCGUGGCAAAGUGGCUGUGGCUAGACUGCCUCUCUGGAUUCCUCGUCACUCAGCAGGGCAUCUCUGAGAGAAAUGCC

Variants of: B1
Assay: self-cleavage, relative activity (ratio to wild type); higher = more cleavage; in vitro, sequencing; the parent is a self-cleaving ribozyme
Variant UACGUAGGUGGUUUUCCCCUGAUAGUGCUAAGGGGGCCUGGAAGUUUGGACUGGGCAGAGCUCCACACAGCGUGGCAAAGUGGCCGUGGCUAGACUGCCUCUCUGGAUUCCUCGUCACUCAGCAGGGCAUCUCUGAGAGAAAUGCC [A64C U85C] has a self-cleavage of 0.02. Work on UACGUAGGUGGUUUUCCCCUGAUAGUGCUAAGGGGGCCUGGAAGUUUGGACUGGGCAGAGCUUAACACAGCGUGGCAAAGCGGCUGUGGCUAGACUGCCUCUCUGGAUUCCUCGUCACUCAGCAGGGCAUCUCUGAGAGAAAUGCC [C63U U81C] yielded a self-cleavage of 0.4. For UACGUAGGUGGUUUUCCCCUGAUAGUGCUAAGGGGGCCUGGAAGUUUGGACUGGGCAGAGCUCCACACAGCGUGUCAAAGUGGCUGUGGCUAGACUGCCUCUCUGGAUUCCUCGUCACUCAGCAGGGCAUCUCUGAGAGAAAUGCC [A64C G75U], the self-cleavage was 0.08. UACGUAGGUGGUUUUCCCCUGAUAGUGCUAAGGGGGCCUGGAAGUUUGGACUGGGCAGAGCUCCACACAGCGUGGCAAAGUGGCUGUGGCUAGACUGCCUCUCAGGAUUCCUCGUCACUCAGCAGGGCAUCUCUGAGAGAAAUGCC [A64C U104A] gave a self-cleavage of 0.28. Variant UACGUAGGUGGUUUUCCCCUGAUAGUGCUAAGGGGGCCUGGAAGUUUGGACUGGGCAGAGCUUAACACAGCGUGGCAAAGUGGCGGUGGCUAGACUGCCUCUCUGGAUUCCUCGUCACUCAGCAGGGCAUCUCUGAGAGAAAUGCC [C63U U85G] has a self-cleavage of 0.1. UACGUAGGUGGUUUUCCCCUGAUAGUGCUAAGGGGGCCUGGAAGUUUGGACUGGGCAGAGCUUAACACAGCGUGGCAAAGUGGCCGUGGCUAGACUGCCUCUCUGGAUUCCUCGUCACUCAGCAGGGCAUCUCUGAGAGAAAUGCC [C63U U85C] gave a self-cleavage of 0.08. With UACGUAGGUGGUUUUCCCCUGAUAGUGCUAAGGGGGCCUGGAAGUUUGGACUGGGCAGAGCUCCACACAGCGUGGCAAAGUGGCUGUGGCUAGACUGCCUCUCUGGAUUCCUCGUCACUCAGCAGGGCACCUCUGAGAGAAAUGCC [A64C U130C] the self-cleavage was 0. Work on UACGUAGGUGGUUUUCCCCUGAUAGUGCUAAGGGGGCCUGGAAGUUUGGACUGGGCAGAGCUCCACACAGCGUGGCAAAGUGGCUGUGGCUAGACUGCCUCUCUGGAUUCCUCGUCACUCAGCAGGGCAUCUCUGAGAGAAGUGCC [A64C A142G] yielded a self-cleavage of 0.25. Work on UACGUAGGUGGUUUUCCCCUGAUAGUGCUAAGGGGGCCUGGAAGUUUGGACUGGGCAGAGCUCCACACAGCGUGGCAAAGUGGCUGUGGCUAGACUGCCUCUCUGGAUUCCUCGUCACUCAGCAGGGCAUCUCUGAGAGAAUUGCC [A64C A142U] yielded a self-cleavage of 0.37. With UACGUAGGUGGUUUUCCCCUGAUAGUGCUAAGGGGGCCUGGAAGUUUGGACUGGGCAGAGCUUAACACAGCGUGGCAAAGUGGCUGUGGCUAGACUGCCUCUCUGGAUACCUCGUCACUCAGCAGGGCAUCUCUGAGAGAAAUGCC [C63U U109A] the self-cleavage was 0.12. UACGUAGGUGGUUUUCCCCUGAUAGUGCUAAGGGGGCCUGGAAGUUUGGACUGGGCAGAGCUCCACACAGCGUGGCAAGGUGGCUGUGGCUAGACUGCCUCUCUGGAUUCCUCGUCACUCAGCAGGGCAUCUCUGAGAGAAAUGCC [A64C A79G] gave a self-cleavage of 0.28. Variant UACGUAGGUGGUUUUCCCCUGAUAGUGCUAAGGGGGCCUGGAAGUUUGGACUGGGCAGAGCUUAACACAGCGUGGCAAAGUGGCUGUGGCUAGACUGCCUCUCUGGAUUCCUCGUCACUCAGCAGGGUAUCUCUGAGAGAAAUGCC [C63U C128U] has a self-cleavage of 0.23. Work on UACGUAGGUGGUUUUCCCCUGAUAGUGCUAAGGGGGCCUGGAAGUUUGGACUGGGCAGAGCUCCACUCAGCGUGGCAAAGUGGCUGUGGCUAGACUGCCUCUCUGGAUUCCUCGUCACUCAGCAGGGCAUCUCUGAGAGAAAUGCC [A64C A67U] yielded a self-cleavage of 0.11. With UACGUAGGUGGUUUUCCCCUGAUAGUGCUAAGGGGGCCUGGAAGUUUGGACUGGGCAGAGCUUAACACAGCGUGGCAAAGUGGCUGUGGCUAGACAGCCUCUCUGGAUUCCUCGUCACUCAGCAGGGCAUCUCUGAGAGAAAUGCC [C63U U96A] the self-cleavage was 0.05. UACGUAGGUGGUUUUCCCCUGAUAGUGCUAAGGGGGCCUGGAAGUUUGGACUGGGCAGAGCUUAACACAGCGUGGCAAAGUGGCUGUGGCUAGACCGCCUCUCUGGAUUCCUCGUCACUCAGCAGGGCAUCUCUGAGAGAAAUGCC [C63U U96C] showed a self-cleavage of 0. With UACGUAGGUGGUUUUCCCCUGAUAGUGCUAAGGGGGCCUGGAAGUUUGGACUGGGCAGAGCUCCACACAGCGUGGCAAAGUGGCUGUGGCUAGGCUGCCUCUCUGGAUUCCUCGUCACUCAGCAGGGCAUCUCUGAGAGAAAUGCC [A64C A94G] the self-cleavage was 0.14. UACGUAGGUGGUUUUCCCCUGAUAGUGCUAAGGGGGCCUGGAAGUUUGGACUGGGCAGAGCUCCACACAGCGUGGCAAAGUGGCUGUGGCUAGACUGCCUCUCUGGAUUCCUCGUCGCUCAGCAGGGCAUCUCUGAGAGAAAUGCC [A64C A117G] showed a self-cleavage of 0.42. Variant UACGUAGGUGGUUUUCCCCUGAUAGUGCUAAGGGGGCCUGGAAGUUUGGACUGGGCAGAGCUCCACACAGCGUGGCAAAGUGGCUGUGGCUAGACUGCCUCUCUGGAUUCCUCGUCACUCAGCAGGGCAUCUCUGAGAGGAAUGCC [A64C A140G] has a self-cleavage of 0.24. In the case of UACGUAGGUGGUUUUCCCCUGAUAGUGCUAAGGGGGCCUGGAAGUUUGGACUGGGCAGAGCUCCACACAGCGUGGCAAAGUGGCUGUGGCUAGACUGCCUCUAUGGAUUCCUCGUCACUCAGCAGGGCAUCUCUGAGAGAAAUGCC [A64C C103A], the self-cleavage is reported as 0.29. For UACGUAGGUGGUUUUCCCCUGAUAGUGCUAAGGGGGCCUGGAAGUUUGGACUGGGCAGAGCUCCACACAGCGUGGCAAAGUGGCUGUGGCUAGACUGCCUCUCUGGGUUCCUCGUCACUCAGCAGGGCAUCUCUGAGAGAAAUGCC [A64C A107G], the self-cleavage was 0.36.
